Results taken from article PMC3927496.

B1: VEa5 (ssDNA)
DNA: ATACCAGTCTATTCAATTGGGCCCGTCCGTATGGTGGGTGTGCTGGCCAGATAGTATGTGCAATCA
B2: Linker 10 (15-mer-T10-29-mer) (structured_DNA)
DNA: GGTTGGTGTGGTTGGTTTTTTTTTTAGTCCGTGGTAGGGCAGGTTGGGGTGACT

Key:
VEGF165 = VEGF165 (Homo sapiens, UniProt P15692-4 27-191); assay: SPR
thrombin = thrombin (UniProt P00734;P00734 328-363;364-622); assay: SPR

Binder | Kd (VEGF165) | Kd (thrombin)
B1 | 116 nM | –
GGTTGGTGTGGTTGGAGTCCGTGGTAGGGCAGGTTGGGGTGACT (structured_DNA) [Linker 0 (15-mer-29-mer)] | – | 0.14 nM
GGTTGGTGTGGTTGGTTTTTAGTCCGTGGTAGGGCAGGTTGGGGTGACT (structured_DNA) [Linker 5 (15-mer-T5-29-mer)] | – | 0.06 nM
B2 | – | 0.74 nM
